Measured values published in patent publication US20240425603A1 (Janssen / Centocor, published 2024).
“And” between values parts separate entries of the source, which are not always exact repeats. Equal entries are not always repeated.

T1: NECTIN1 Isoform Gamma (NM_203286.1) (human, UniProt Q15223-3 31-352)
T1 construct: whole, on cells
T1 sequence (looked up): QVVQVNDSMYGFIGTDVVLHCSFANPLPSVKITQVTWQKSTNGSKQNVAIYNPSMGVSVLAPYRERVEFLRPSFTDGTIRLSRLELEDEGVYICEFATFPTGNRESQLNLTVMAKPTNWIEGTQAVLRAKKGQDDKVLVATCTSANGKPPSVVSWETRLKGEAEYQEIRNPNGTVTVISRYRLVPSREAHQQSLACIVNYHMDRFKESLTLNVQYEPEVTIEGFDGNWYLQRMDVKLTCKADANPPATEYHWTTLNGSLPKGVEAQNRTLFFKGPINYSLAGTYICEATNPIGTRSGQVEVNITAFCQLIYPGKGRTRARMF

T2: NECTIN1 Isoform Alpha (NM_203285.1) (human, UniProt Q15223-2 31-458)
T2 construct: whole, on cells
T2 sequence (looked up): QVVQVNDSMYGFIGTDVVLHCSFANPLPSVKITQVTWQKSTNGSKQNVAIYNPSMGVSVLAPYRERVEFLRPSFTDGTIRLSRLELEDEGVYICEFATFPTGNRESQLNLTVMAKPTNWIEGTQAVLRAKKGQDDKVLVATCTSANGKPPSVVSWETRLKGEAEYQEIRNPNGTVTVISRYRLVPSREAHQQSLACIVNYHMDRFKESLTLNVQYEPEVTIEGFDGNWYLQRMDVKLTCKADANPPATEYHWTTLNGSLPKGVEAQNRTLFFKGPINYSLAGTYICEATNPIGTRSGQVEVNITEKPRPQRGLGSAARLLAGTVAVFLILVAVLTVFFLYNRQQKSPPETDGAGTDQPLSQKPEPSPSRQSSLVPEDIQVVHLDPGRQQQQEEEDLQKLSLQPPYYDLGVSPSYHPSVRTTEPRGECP

T3: mouse VEGFR1 (soluble antigen of the KinExA and SPR affinity assays) (mouse, UniProt P35969 23-759, limits assumed)
T3 sequence (looked up): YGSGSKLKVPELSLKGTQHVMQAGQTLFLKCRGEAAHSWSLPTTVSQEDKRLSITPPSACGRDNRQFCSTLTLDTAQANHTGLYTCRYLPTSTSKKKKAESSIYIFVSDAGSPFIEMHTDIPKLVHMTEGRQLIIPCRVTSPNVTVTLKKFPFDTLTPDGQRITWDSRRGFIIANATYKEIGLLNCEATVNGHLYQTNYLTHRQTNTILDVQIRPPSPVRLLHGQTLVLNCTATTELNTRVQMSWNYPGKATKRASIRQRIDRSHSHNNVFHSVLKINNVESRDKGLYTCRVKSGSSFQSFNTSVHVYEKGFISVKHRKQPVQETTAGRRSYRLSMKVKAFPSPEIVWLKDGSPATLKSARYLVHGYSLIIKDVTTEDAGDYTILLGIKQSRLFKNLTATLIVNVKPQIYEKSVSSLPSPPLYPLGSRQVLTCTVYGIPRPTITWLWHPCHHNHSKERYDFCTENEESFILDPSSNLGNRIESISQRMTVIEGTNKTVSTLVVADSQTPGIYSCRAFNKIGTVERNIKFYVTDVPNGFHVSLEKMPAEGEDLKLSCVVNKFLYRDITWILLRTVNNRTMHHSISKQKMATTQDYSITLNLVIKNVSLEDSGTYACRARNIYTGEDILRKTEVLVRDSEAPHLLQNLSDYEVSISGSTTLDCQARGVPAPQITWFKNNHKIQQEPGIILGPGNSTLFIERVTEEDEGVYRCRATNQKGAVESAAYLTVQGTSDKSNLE

B1: VGFB54 (antibody, human IgG1, lambda, L234A L235A, V domains shown)
VH: EVQLLESGGGSVQPGGSLRLSCTASGFNFEDYGMNWVRQAPGKGLDWVSSINRNGDISTYHVDSVKGRFTISRDNSKNTLYLQMNSLRAEDTAIYYCTKNHDYHGMDVWGQGTTVTVSS
VL: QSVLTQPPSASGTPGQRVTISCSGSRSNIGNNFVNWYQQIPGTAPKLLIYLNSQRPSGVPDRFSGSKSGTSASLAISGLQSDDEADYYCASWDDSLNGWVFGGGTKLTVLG
notes: human IgG1 (L234A/L235A/D265S), lambda, 2H:2L; from OmniChicken
B2: VGFB71 (antibody, human IgG1, lambda, L234A L235A, V domains shown)
VH: EVQLLESGGGLVQPGGSLRLSCEASGFIFRDYNMNWVRQAPGKGLEWVSIITNDGSSTAYSDSVKGRFTISRDNSKNSLYLQMNSLRAEDTAIYYCVKVYYGMDDWGQGTTVTVSS
VL: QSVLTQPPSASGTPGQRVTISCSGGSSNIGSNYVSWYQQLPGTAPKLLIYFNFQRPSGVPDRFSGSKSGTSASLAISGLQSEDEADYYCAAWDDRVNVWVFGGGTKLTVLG
notes: human IgG1 (L234A/L235A/D265S)
B3: VGFB82 (antibody, human IgG1, lambda, L234A L235A, V domains shown)
VH: EVQLLESGGGLVQPGGSLRLSCEASGFDFSTYAMNWVRQAPGKGLEWVATINSEGTITSHAPAVKGRFTISRDNSKNTAYVQMNSLRAEDSAVYYCSSTTGTTHGMDVWGRGTTVTVSS
VL: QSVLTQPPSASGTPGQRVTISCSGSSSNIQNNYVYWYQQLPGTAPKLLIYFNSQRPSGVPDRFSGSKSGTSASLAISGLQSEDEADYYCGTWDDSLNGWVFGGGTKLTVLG
notes: as for B2
B4: VGFB78 (antibody, human IgG1, lambda, L234A L235A, V domains shown)
VH: EVQLLESGGGLVQPGGSLRLSCAASSFTFYNYDMTWVRQAPGKGLEWVAGIGTSGTDMYYADSVKGRFTISRDNSKNTLYLQMNSLRAEDTAIYYCAKDYYYYGMDVWGLGTTVTVSS
VL: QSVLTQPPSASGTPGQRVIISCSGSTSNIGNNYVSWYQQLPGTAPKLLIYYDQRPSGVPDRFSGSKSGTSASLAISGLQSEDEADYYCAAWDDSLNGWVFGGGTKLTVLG
notes: as for B2

Legend:
[1] = target: T1, NECTIN1 Isoform Gamma (NM_203286.1); assay: Retrogenix cell microarray, fixed HEK293 cells; blank cells in Table 32 (topology TS and S)
Experimental: (§1) This human cell microarray methodology has been previously described in the literature (Freeth, J. et al, SLAS Discovery, 25 (2), 223-230, 2020). Primary screening was performed on slides arrayed with fixed HEK293 cells with each spot of HEK293 cells expressing either a unique protein from the cell surface-ome, a cell surface tethered human secreted protein, or a heterodimeric human cell surface receptor. In total, 5,528 unique gene products were represented in this primary screen (4,103 human plasma membrane proteins (+some untethered secreted proteins)+1,425 cell surface tethered human secreted proteins). Briefly, slides containing fixed transfected HEK293 cells were overlaid with a solution of test antibody (2 μg/mL), incubated, and washed. Binding was assessed using AlexaFluor647-conjugated anti-human IgG Fc detection antibody and fluorescence quantitation on ImageQuant. […] Located in the ER, off-target binding to CRELD2 was of less concern. Nectin-1, FGFR2, and ISLR, on the other hand, display broad tissue expression profiles. Cross-reactivity to these proteins is undesirable because binding to these targets might have a significant impact on pharmacokinetic and biodistribution profiles of the molecules. This off-target binding was subsequently confirmed by flow cytometry on live HEK293 cells transiently expressing these ‘off-target’ proteins identified in the primary screen.

[2] = target: T4, cynomolgus monkey VEGFR1 (soluble antigen of the KinExA and SPR affinity assays) (cynomolgus monkey); assay: SPR
[3] = target: T1, NECTIN1 Isoform Gamma (NM_203286.1); assay: Retrogenix cell microarray, fixed HEK293 cells, 2 ug/mL antibody; topology TS
Experimental: as §1

[4] = target: T2, NECTIN1 Isoform Alpha (NM_203285.1); assay: Retrogenix cell microarray, fixed HEK293 cells, 2 ug/mL antibody
Experimental: as §1

[5] = target: T4, cynomolgus monkey VEGFR1 (soluble …); assay: KinExA, solution
Experimental: (§2) Kinetic exclusion assay (KEA; KinExA) was used to analyze the binding of anti-VEGFR1 antibodies to human, mouse and cynomolgus monkeys VEGFR1. KEA is a fluorescence-based solution method, and it is described in detail in the literature (Darling and Brault, 2004). To measure the affinity of an interaction, a series of solutions with a fixed concentration of one interactant (A) and varying concentrations of another interactant (B) are prepared and allowed to reach equilibrium. After equilibration, the concentration of free A is determined by flowing the equilibrated mixture through a column packed with beads modified with reactant B. Free A binds to the beads and is then detected using a fluorescently labeled polyclonal antibody.
(§3) Briefly, fixed concentrations (300 pM, 60 pM, 12 pM, 2.4 or 0.5 pM) of Ab were used to prepare a serial dilution of the antigen (2 nM to 0.52 pM, or 800 pM to 5.37 fM). The complex titrations were incubated at RT to reach binding equilibrium for at least 2 days. After incubation, the samples were run on the KinExA3200 or KinExA4000 instrument to assess free antibody in the reaction. During these studies some of the data were rejected because the experiments failed or failed the acceptance criteria. For mouse VEGFR1 the 60 and 300 pM concentrations were rejected due to high titrant related NSB. The dissociation equilibrium constant, (KD), was determined using the n-curve analysis feature of the KinExA Pro software. This program uses nonlinear least-square regression analysis of the globally fitted data to a 1:1 binding model. (CI=confidence interval).

[6] = target: T3, mouse VEGFR1 (soluble antigen of the …); assay: KinExA, solution
Experimental: as §2, §3

| Binder | binding result [1] | Kd [2] | binding result [3] | binding result [4] | Kd [5] | Kd [6] |
| --- | --- | --- | --- | --- | --- | --- |
| B1 | no binding (tested: 2 µg/mL) | 0.016 nM and 0.018 nM | – | – | – | – |
| B2 | – | – | binds | binds | – | – |
| B3 | no binding (tested: 2 µg/mL) | 0.038 nM and 0.023 nM | – | – | 0.0003 nM | 0.023 nM |
| B4 | – | – | – | – | 0.00071 nM | 0.00385 nM |
